assay: label from the status in PepcDB records
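Also: failed if final PepcDB status was selected cloned or expressed and not failed if soluble or beyond.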

With “MPTPAYIKIVGQTQGNITAGAFTADSVGNVFQQGHEDQILVQEIKHEVTTPTDPQSGQPSGQRVHKPFIFTSSLNKATPLMYQALATGEMLPTVEVSWYRTSSEGKQEHFFTTTLEDATIVSINTVLPHALDKDNENYTQLVEVSLAYRKITWAHDVANTEGSDDWRAPAA” as the sequence, how does the protein production read?
Its protein production is “failed”.

For “MPTPAYMSINGETQGHITKDTYSADSVGNTWQEAHVDEFLVQELDHVLTVPRDPQSGQPTGQRVHRPLVVTKVQDRSSPLLFNALVSGEKLPECLIRFYRTSVQGKQEHYYSIKLIDALLVDIQTRMNHCQDAATADRVTEEVLKFTYRAIEVTHENCGTAGNDDWRAPREA”, which protein production is on record?
The protein production was “failed”.

With “MPTPPAASSLAAQMGESPAPLYARVKHMIALQIQNGTWPPHHRVPSESELVTQLGFSRMTINRALRELTVEGLLVRMQGVGTFVAEPKSQSALFEVHNIADEIAARGHRHTCKVMVLKEEAAGSERALALDMREGQRVFHSLIVHFENDIPVQIEDRFVNAQVAPDYLKQDFTLQTPYAYLSQVAPLTEGEHVVEAILAEADECKLLQIDAGEPCLLIRRRTWSGRQPVTAARLIHPGSRHRLEGRFTK” as the sequence, how does the protein production read?
The protein production was “not failed”.

Which protein production does the source give for “MPTTKQLKDTELPLNFFEHSSLETIELFIQHLTEAMILVNANGFIRSCNQRSAELLDCPQVSLKGQDWRNFLTEHHQARYDNLLSHDVQLGTNCGQPVQHPAQETTLICASGKAKDVELSISYIPGHEPMFVMVMHDLTHHKAENQKLRKLAATDSLTQLANRRYFDEMLQQHWEECTAKLRPISVVIIDVDYFKVFNDQFGHIQGDECLRKIAKVIAGIVPTEIGLAARYGGEEFALILPNHNAKMALTIAQKIQQGINNIRFTDQGLRDYVSVSASQGIACEVNGQFRTSLAMVCAADTALYRAKADGRDRINTSL” here?
Its protein production is “failed”.

Which protein production does the source give for “MPTTTTDPNQKQAELSPDELQRYSRHLTLPEFGREGQEALKNASVLLVGAGGLGSPAATYLAAAGVGRIGLVDFDSVEASNLQRQILYGTSDVGRPKLDAASERLEDLNPHVDVETHEVRLTSDNALDIIDQYDVVADGTDNFPTRYLVNDACVMTGTPNVYASIFRFEGQVSVFATEDGPCYRCLYEEPPPPGLVPSCAEGGVLGILPGFIGTLQATEVIKVLTGVGEPLVGRLLMSDALNMDFRTVNVPTNPECPVCGDDPTVTELIDYEAFCGLPQSDESSPNGTADSDVSDTDDAVPETSVHDLKQRRDAGDAPFVLDVREPYEAEIASLDADQLIPVDDLEARLDELDAGPEEEIVVHCRSGARSAKATAFLREQGYDASNLEGGVLAWSEEIDDSVPQY” here?
Its protein production is “failed”.

Which protein production does the source give for “MPTVKKLTKQVVDGLPTPATGQAFHWCSVTPGFAVRVTASGAKSYIVQGRVNSKTCRYTIGPCELLGTDEARKRALARLLEMHDGMNPQVERKRRQAQGVTLREVMEDYVENKRTKHGTLRDSSQADIKRCVTQHLADWADKPVASITREACVKRFRELSATAPTTANQVFRNLRALCNWARETNVAPDGSYPILPINPVVQAFKSVTWNKEVTREEFVPLAKVGAVWNMLAERSNAQIYTTADVTAAHLVMFLILTGARIGEGSALHWKDVRLDDEVPSFTFTQTKNHNEVTIPLSTQLHALLAARYSARRPDEEYVFPSRTGTREPHMQDARGTMQRVSKIAGLHLHNHDLRRTFLAIAIECGVEMWKAEILTNHLPQTVTLKHYTQTRDLRYLQADTQRVADWITKQAQVASGQNVVALRA” here?
Its protein production is “failed”.

With “MPTVLRWTRTMCKRPTCRVRQAWLVLPITGRWPSGGVSMKHACMLDSALPKPSQHSLRRQLNAIKREQFPWMSEVTKNAPQMAIIQLGRAFQNFFAGRAKYPKFRKKGMHDRFTLTNDQFDLEASRIRIPRLGWVRMRETLRFAGKIMLATVSRVAGRWFVSITVDVPDPSHLPQAENQGTVGVDLGVLVLATLSTGETVCGPRPHRALLGRVCRLSRSVLRKVKGSANRHKAKATLANLHARIAAIRLDALHTLTSDLTRRFHTIGIENLNVKGMLRNRHLARSIADIGFFEFRRQLEYKAMMRGGQVVVANRFFASSKRCLTCGHTLNELPLSVRQWACPACGARHDRDVNAAVNLKNMAVSSTVSACGEEGAGPRRKTAVGEAGSQLLEHHHHHH” as the sequence, how does the protein production read?
Its protein production is “failed”.

With “MPTYPPSLLQSLLQYIPERELAWDCGAGSGQLTHMLASYFDQVVGTDISQTQLSHAEYYDNISYQLQPAENTTFPDHCFDLITVAQAIHWFDFEAFYAEVRRTIKPSGILAVVGYGLIHVDDLEINAKVQHLYHQTLNGFWDAERHYVDELYQTIPFPFDEIEMPAFQIEAQWTLQQLLQYLNTWSAVQHYILEKNLDPVQQLLSKGLEHHHHHH” as the sequence, how does the protein production read?
Its protein production is “failed”.

For “MPVEITVKELLEAGVHFGHERKRWNPKFARYIYAERNGIHIIDLQKTMEELERTFRFIEDLAMRGGTILFVGTKKQAQDIVRMEAERAGMPYVNQRWLGGMLTNFKTISQRVHRLEELEALFASPEIEERPKKEQVRLKHELERLQKYLSGFRLLKRLPDAIFVVDPTKEAIAVREARKLFIPVIALADTDSDPDLVDYIIPGNDDAIRSIQLILSRAVDLIIQARGGVVEPSPSYALVQEAEATETPEGESEVEA”, which protein production is on record?
The protein production was “not failed”.

For “MPVHSRGDKKETNHHDEMEVDYAENEGSSSEDEDTESSSVSEDGDSSEMDDEDCERRRMECLDEMSNLEKQFTDLKDQLYKERLSQVDAKLQEVIAGKAPEYLEPLATLQENMQIRTKVAGIYRELCLESVKNKYECEIQASRQHCESEKLLLYDTVQSELEEKIRRLEEDRHSIDITSELWNDELQSRKKRKDPFSPDKKKPVVVSGPYIVYMLQDLDILEDWTTIRKAMATLGPHRVKTEPPVKLEKHLHSARSEEGRLYYDGEWYIRGQTICIDKKDECPTSAVITTINHDEVWFKRPDGSKSKLYISQLQKGKYSIKHS”, which protein production is on record?
Its protein production is “not failed”.

Which protein production does the source give for “MPVRTSQASQGNRGKGVGLGLALASAVAFGGSGVAAKPLIEAGLDPLHVVWLRVSGAALVMLPLAVRHRALLRRRPALLIGFGLLAVAGVQACYFAAISRIPVGVALLVEYLAPALVLGWVRFVQRRPVTRAAALGVVLAVGGLACVVEVWSGLGFDALGLLLALAAACCQVGYFVLSDQGSETGEDAPDPLGVIAFGLLIGALVLTVVARPWTMDWSVLGGRADMNGDSVPAALLLGWIVLIATVVAYVTGVLSVRRLSPQVAGVVACLEAVIATVLAWVLLGEHLSAPQIIGGAVVLVGAFIAQSSAPAKPSDGPVTGGGGAERQLSARGTAA” here?
Its protein production is “failed”.

With “MPVSLYSGKVALRLLLLQLVTFALLSAVFSLNSVNAAASALGGGLAAWLPNVLFVLFALRHQSHKPADGRVAWSFAIGEALKVFITIALLVVALGVFKAAFFPLGLTYLSVLVMQIVAPIVINRYRN” as the sequence, how does the protein production read?
Its protein production is “failed”.

With “MPWLQVRLAITPEQAETYEDALLEVGAVSVTFMDAEDQPIFEPDLGTTPLWSRTHLLALFEADTDETALLAHLALLTGGDLPEHHVEEIADQDWERSWMDNFQPMRFGRRLWIVPSWHAAPEPDAVNLLLDPGLAFGTGTHPTTALCLEWLDGQELAGRQVLDFGCGSGILAIAALLLGAERAVGTDIDPQALEASRDNASRNGIEPARFPVYLPADLPQRQADVLVANILAGPLVSLAPQLTGLVRPGGLLALSGILAEQAEEVRAAYSAHFDLDPTAEREGWIRISGRRRAD” as the sequence, how does the protein production read?
Its protein production is “failed”.

With “MQAFRAPSLATIDDVCGTRADGYDGAPLRSIPDFAVIVPMHNEEASVETLVAEIVTACQPVGQFEIVVVDDASSDRTVNAVLSLGDRYPMLRLVRHDRQGGQSAAIHSGVQAARAPVICMLDGDGQNPPDNLPALLAPLLSATATSRLGLVAGQRVGRRDTLGKRLSSRFANGLRARILKDGTRDTGCGLKAFRRDAYLALPYFDHHHRYFPALFNRDGWQVAHVDVTHRARLHGNSHYTNIGRALVGIHDLIGVVWLLRRRKRSSWAETFKTETSPLEHHHHHH” as the sequence, how does the protein production read?
The protein production was “not failed”.

For “MQAGPSAAVENKIITLVESILAQNGIAGGIERDTTFADAGLTSMEMVNLMLAVEAEFDMTLPQSDITPENFTSAATVAQLVSRRQHAQAALEHHHHHH”, which protein production is on record?
Its protein production is “not failed”.

Which protein production does the source give for “MQAIAIDQFSEPEETQVEQVENPDRNEAGYEVCNQSGENLSVAIAYFDTSIDSYRSEGWWNLDQSKCQFFPNLLDSVDEVYVFAESDQTLWSGDFPFCMQEDAFEYPDANRDRCPSPAYSKGFLKVEVGDAKTWTTNLTPSQLEHHHHHH” here?
Its protein production is “failed”.

For “MQDASAWMLALAGLCVGVTAGFFVRLARLCSFGAVEDALMGGDTRRLRIFGLALGIALLGTQALVIAGQLDPGQSNYTAPALPLISIAIGSVLFGIGMAFVGTCGFGSLVRLGGGDLRSFVVILVLGGAAYATLRGMFSGFRITVLERFAITMPEGVNTDLAALTQHLSGIDLRAVIAALGGGLLCLIALGDKRLRRTPRLLAAGVALGLLTVVGWLATTKLADPFAGPVHPQSLTFVSTVGKAVYAGLLNVANFADFGVGTVFGVIAGAFIAAWHTDELRWEAFDDDHEMRRHVAGAALMGFGGILTGGCTIGQGITAGSVMALSWPIAIVGMMFGARIGIAVLVDGSPRELIRRRFDAWRELLQRRRAPALTAANRPNHRPAAPSDAPRPTAPHSLAE”, which protein production is on record?
Its protein production is “failed”.

For “MQDDVLAKELADKTSKADIDTDAQTVTRLIADEIDTAKQAAESDITQRSRFIETLRQYAGGGSAMAALITRLGYSKADILHLAELWAQERDPELNFIVGSLYDSGFVEVDDKEARSLQWFRKAAELGQADAQNILGYFYLNGKRGIKRDLQKGGQWYELAAAQGNVDALINLGEIYYSGTQVPLDYARAFEFFERAAKMGKSRALNYLAWMYTNGQFVDTDCRKAAELFAQGRTSFADDPHFQVTCEKDRQARAEAVAMREKNLPKLTFNRDRVFGASQGSGYACELEFVVKTDRVSSIENLRVSLALKNKAGAMSQQVIAFEPFGLNTQNRNLQGYKSDTLRESTLQPIYQPEFCDVDSYSVTAVTGIVNGKEMDILKAGIFL”, which protein production is on record?
Its protein production is “failed”.

Which protein production does the source give for “MQDEYYMARALKLAQRGRFTTHPNPNVGCVIVKDGEIVGEGYHQRAGEPHAEVHALRMAGEKAKGATAYVTLEPCSHHGRTPPCCDALIAAGVARVVASMQDPNPQVAGRGLYRLQQAGIDVSHGLMMSEAEQLNKGFLKRMRTGFPYIQLKLGASLDGRTAMASGESQWITSPQARRDVQLLRAQSHAILTSSATVLADDPALTVRWSELDEQTQALYPQQNLRQPIRIVIDSQNRVTPVHRIVQQPGETWFARTQEDSREWPETVRTLLIPEHKGHLDLVVLMMQLGKQQINSIWVEAGPTLAGALLQAGLVDELIVYIAPKLLGSDARGLCTLPGLEKLADAPQFKFKEIRHVGPDVCLHLVGA” here?
The protein production was “not failed”.

Which protein production does the source give for “MQDFDFSFNPKACEGCGAKCCVGESGYIFLNIQEMQQISAFLKLELEEFSQKYVKKVGYKFSLLEKDAKELGLACVFLDLETKKCQIYSVRPKQCQTFPFWEGVKTFSKEQKEAFCQSCPGITQKTKETKVR” here?
Its protein production is “failed”.

For “MQDFGDNSGRAPAAGRSWRNTPSSFGVVAIAFHWTIAVLFVAQLALGYLMSRDSIDPVLQFNFFQYHKSIGFLVLALAVPRCLWSVFSRKPRAVDGEGPVSRFAARVAHSALLFLTLAVPLAGWAVASTSPLQIPSYVFDLVVVPGLPMTISDQAEAFWSDVHATLAYLAAVIVLLHVIAALWHHFIRRDPTLRRMLPLPDTTDNSRREISSGQ”, which protein production is on record?
The protein production was “failed”.

For “MQDIVRKTIDNLNRNHMAGYYTQSIQQLHELLYRLMPEGQTVGCGDSVTLEQSGVYEYVRNHSYNFLDKYRTGLNREEKREIYLQNFRADTFLTGINAVTIDGKLFNIDGNGSRVAPIIYGPKQVIAVVGTNKIVKSVDDAIWRTRQIAAPLDARRLAKETPCVKLAKCIDCHHSQRICNDFVLITGQFEKGRIKVIFIEGDYGY”, which protein production is on record?
The protein production was “failed”.

Which protein production does the source give for “MQDLGIAFQTAVGDSGGNLDGRTPLPSNDWLMKRNCSLTPRQAGWFYFSIVCFSTAIAVFFAVWLGAWLVLPFAGLELLGLGIALLAYARHAADYERVSVTDGMLVVETASASRITREVFNPRWVRVELGESFRAPVVLRSDKRSVQVGLYLDPYRRRKFAQELAVALQRV” here?
The protein production was “failed”.

Reference: a protein production outcome set (Wang et al. 2014)
